{
  "source": "paper PMC11980035",
  "molecular_target": "PRC2^amKR: PRC2 with EZH2 K510R, K514R, K515R (am-loop lysines mutated to arginines) (human) (UniProt Q15910)",
  "data": [
    {"substance": "PRC2^CXC: PRC2 with EZH2 K568A/Q570A/K574A/Q575A in the CXC domain, automethylated (from UniProt Q15910-2 1-751; Q15022 80-685; O75530 1-441; Q09028 1-425; Q6ZN18 1-517) (complex)", "values": [
      {"measurement": "H3K27me3 generated by PRC2^amKR on mononucleosomes (HMTase assay, western blot) with 400 nM PRC2^CXC added", "value": 50, "unit": "%"}
    ]}
  ]
}
